Values of other authors in publication PMC8999013.

Target: integrin α7B cytoplasmic domain (Homo sapiens) (UniProt Q13683)
Experiment: intrinsic tryptophan fluorescence

Sequence of CIB2 (O75838 whole entry): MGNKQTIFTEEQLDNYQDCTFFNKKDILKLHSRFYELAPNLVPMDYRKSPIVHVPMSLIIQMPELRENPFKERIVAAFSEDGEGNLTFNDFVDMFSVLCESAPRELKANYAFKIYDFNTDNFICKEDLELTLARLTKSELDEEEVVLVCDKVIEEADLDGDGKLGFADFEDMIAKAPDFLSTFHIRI
Sequence of integrin α7B cytoplasmic domain (Homo sapiens) (Q13683 1104-1181): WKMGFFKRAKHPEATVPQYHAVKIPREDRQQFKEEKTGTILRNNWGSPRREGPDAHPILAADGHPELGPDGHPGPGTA

Kd: 304 nM
Substance: CIB2 (from UniProt O75838)
